Measured values reported in PMC4595643, “Pathways of allosteric regulation in Hsp70 chaperones” (Nature Communications, 2015).
Blank lines part the entries; values can stand above or below the binder they belong to. Ends that are not written are not given here. * marks the point of attachment. IAANS = 2-(4'-(iodoacetamido)anilino)naphthalene-6-sulfonic acid label, O=C(C*)Nc1ccc(Nc2ccc3cc(S(=O)(=O)O)ccc3c2)cc1; HiLyte Fluor 488 maleimide = HiLyte Fluor 488-maleimide (Anaspec) label

Columns and labels:
Details in all cases: both partners purified
wild-type DnaK [1] = molecular target: T1, wild-type DnaK (Escherichia coli, UniProt P0A6Y8 1-638); assay: MST; 100 nM HiLyte Fluor 488-labelled peptide with 0.6 nM-10 μM DnaK, HKM buffer (25 mM HEPES/KOH pH 7.6, 50 mM KCl, 5 mM MgCl2) with 0.1% Tween-20, incubated at least 30 min, 30 °C, Monolith NT.115
T1 construct: DnaK, the Hsp70 of Escherichia coli; also called DnaKwt; Wt; source: E. coli ΔdnaK52 cells (BB1553), purified (Ni-IDA, Resource Q), nucleotides removed

DnaK-V440A [2] = molecular target: T2, DnaK-V440A (Escherichia coli, UniProt P0A6Y8 1-638, V440A); assay: as above
T2 construct: DnaK, the Hsp70 of Escherichia coli, Val440 replaced by alanine; source: E. coli ΔdnaK52 cells (BB1553), purified (Ni-IDA, Resource Q), nucleotides removed

DnaK-D148A [3] = molecular target: T3, DnaK-D148A (Escherichia coli, UniProt P0A6Y8 1-638, D148A); assay: as above
T3 construct: DnaK, the Hsp70 of Escherichia coli, Asp148 replaced by alanine; source: E. coli ΔdnaK52 cells (BB1553), purified (Ni-IDA, Resource Q), nucleotides removed

DnaK-L484A [4] = molecular target: T4, DnaK-L484A (Escherichia coli, UniProt P0A6Y8 1-638, L484A); assay: as above
T4 construct: DnaK, the Hsp70 of Escherichia coli, Leu484 replaced by alanine; source: E. coli ΔdnaK52 cells (BB1553), purified (Ni-IDA, Resource Q), nucleotides removed

DnaK-D481K = molecular target: T5, DnaK-D481K (Escherichia coli, UniProt P0A6Y8 1-638, D481K); assay: fluorescence dissociation kinetics (chase with unlabelled peptide); in the presence of ATP; 0.5 μM DnaK and 0.5 μM IAANS-labelled peptide pre-incubated at least 30 min, then mixed with 50-fold excess of unlabelled peptide; HKM buffer, 30 °C; stopped flow
T5 construct: DnaK, the Hsp70 of Escherichia coli, Asp481 replaced by lysine; source: E. coli ΔdnaK52 cells (BB1553), purified (Ni-IDA, Resource Q), nucleotides removed

DnaK-V440A [5] = molecular target: T2, DnaK-V440A; assay: as above
DnaK-L484A [6] = molecular target: T4, DnaK-L484A; assay: as above
DnaK-D481A = molecular target: T6, DnaK-D481A (Escherichia coli, UniProt P0A6Y8 1-638, D481A); assay: as above
T6 construct: DnaK, the Hsp70 of Escherichia coli, Asp481 replaced by alanine; source: E. coli ΔdnaK52 cells (BB1553), purified (Ni-IDA, Resource Q), nucleotides removed

wild-type DnaK [7] = molecular target: T1, wild-type DnaK; assay: fluorescence dissociation kinetics (chase with unlabelled peptide); no nucleotide; 0.5 μM DnaK and 0.5 μM IAANS-labelled peptide pre-incubated at least 30 min, then mixed with 50-fold excess of unlabelled peptide; HKM buffer, 30 °C; Perkin Elmer LS55
DnaK-Y145F = molecular target: T7, DnaK-Y145F (Escherichia coli, UniProt P0A6Y8 1-638, Y145F); assay: as above
T7 construct: DnaK, the Hsp70 of Escherichia coli, Tyr145 replaced by phenylalanine; source: E. coli ΔdnaK52 cells (BB1553), purified (Ni-IDA, Resource Q), nucleotides removed

DnaK-D148A [8] = molecular target: T3, DnaK-D148A; assay: as above
DnaK-Y145A = molecular target: T8, DnaK-Y145A (Escherichia coli, UniProt P0A6Y8 1-638, Y145A); assay: as above
T8 construct: DnaK, the Hsp70 of Escherichia coli, Tyr145 replaced by alanine; source: E. coli ΔdnaK52 cells (BB1553), purified (Ni-IDA, Resource Q), nucleotides removed

DnaK-Y145H = molecular target: T9, DnaK-Y145H (Escherichia coli, UniProt P0A6Y8 1-638, Y145H); assay: as above
T9 construct: DnaK, the Hsp70 of Escherichia coli, Tyr145 replaced by histidine; source: E. coli ΔdnaK52 cells (BB1553), purified (Ni-IDA, Resource Q), nucleotides removed

DnaK-F146A = molecular target: T10, DnaK-F146A (Escherichia coli, UniProt P0A6Y8 1-638, F146A); assay: as above
T10 construct: DnaK, the Hsp70 of Escherichia coli, Phe146 replaced by alanine; source: E. coli ΔdnaK52 cells (BB1553), purified (Ni-IDA, Resource Q), nucleotides removed

binding result (wild-type DnaK [1]): binds
binding result (DnaK-V440A [2]): binds
binding result (DnaK-D148A [3]): binds
binding result (DnaK-L484A [4]): binds
B1: HiLyte Fluor 488-labelled σ32-Q132-Q144-C (peptide)
peptide: QRKLFFNLRKTKQC(HiLyte Fluor 488 maleimide)
notes: residues Q132-Q144 of σ32, the E. coli heat shock transcription factor; cysteine added at the C-terminus of the peptide (the '-C' of its name); also called fluorescently labelled peptide derived from σ32

binding result (DnaK-D481K): binds
binding result (DnaK-V440A [5]): binds
binding result (DnaK-L484A [6]): binds
binding result (DnaK-D481A): binds
binding result (wild-type DnaK [7]): binds
binding result (DnaK-Y145F): binds
binding result (DnaK-D148A [8]): binds
binding result (DnaK-Y145A): binds
binding result (DnaK-Y145H): binds
binding result (DnaK-F146A): binds
B2: IAANS-labelled peptide σ32-Q132-Q144-C (peptide)
peptide: QRKLFFNLRKTKQC(IAANS)
notes: residues Q132-Q144 of σ32, the E. coli heat shock transcription factor; cysteine added at the C-terminus of the peptide (the '-C' of its name); also called 2-(4'-(iodoacetamido)anilino)naphthalene-6-sulfonic acid labelled σ32-Q132-Q144-C; substrate
